This assay addresses mouse CXCL14 (R&D Systems) (mouse) (UniProt Q9WUQ5). The assay can be described thus: cell-based or functional assay.

Data on 1 substance can be found in patent publication US20110020347A1.

UniProt Q9WUQ5, sequence (Q9WUQ5 23-99): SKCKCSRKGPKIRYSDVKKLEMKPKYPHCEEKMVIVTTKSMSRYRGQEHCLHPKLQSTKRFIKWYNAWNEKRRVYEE

“rat anti-mouse CXCL14 monoclonal antibody (MAB730, R&D Systems)”: the inhibition of attraction (chemotaxis) of forskolin-stimulated C2C12 cells by mouse CXCL14, antibody at 10 µg/ml, CXCL14 at 100 nM turned out to be 54%.
